Target: the molecule itself
Test: cryo-EM structure; apo hSMPD2 at about 10 mg/mL in 25 mM Hepes pH 7.4, 150 mM NaCl, 2 mM Mg2+, 0.005% LMNG; final map refined with C2 symmetry

B1: human neutral sphingomyelinase 1 (hSMPD2), full length, wild type, twin-Strep tagged (enzyme, UniProt O60906 1-423, looked up)
chain: MKPNFSLRLRIFNLNCWGIPYLSKHRADRMRRLGDFLNQESFDLALLEEVWSEQDFQYLRQKLSPTYPAAHHFRSGIIGSGLCVFSKHPIQELTQHIYTLNGYPYMIHHGDWFSGKAVGLLVLHLSGMVLNAYVTHLHAEYNRQKDIYLAHRVAQAWELAQFIHHTSKKADVVLLCGDLNMHPEDLGCCLLKEWTGLHDAYLETRDFKGSEEGNTMVPKNCYVSQQELKPFPFGVRIDYVLYKAVSGFYISCKSFETTTGFDPHRGTPLSDHEALMATLFVRHSPPQQNPSSTHGPAERSPLMCVLKEAWTELGLGMAQARWWATFASYVIGLGLLLLALLCVLAAGGGAGEAAILLWTPSVGLVLWAGAFYLFHVQEVNGLYRAQAELQHVLGRAREAQDLGPEPQPALLLGQQEGDRTKEQ
notes: human SMPD2 (neutral sphingomyelinase 1), UniProt O60906, full length; cloned from human cDNA into pcDNA3.1(-); In the cryo-EM model the loop preceding TMH1 and residues 403-423 were disordered and not modelled; also called nSMase1; apo hSMPD2; source: HEK293F, transiently transfected, purified (membranes solubilised in LMNG, Strep-Tactin, size-exclusion chromatography)
stoichiometry N: 2
